Columns and labels:
[1] = molecular target: Drosophila Plk4 cryptic polo box (DmPlk4 CPB), aa 383-601 (Drosophila) (UniProt O97143); experiment: MST
[2] = molecular target: ZYG-1 cryptic polo box (CPB), aa 338-564 (C. elegans) (UniProt Q9GT24); experiment: MST
Sequence of ZYG-1 cryptic polo box (CPB), aa 338-564 (C. elegans) (Q9GT24 338-564): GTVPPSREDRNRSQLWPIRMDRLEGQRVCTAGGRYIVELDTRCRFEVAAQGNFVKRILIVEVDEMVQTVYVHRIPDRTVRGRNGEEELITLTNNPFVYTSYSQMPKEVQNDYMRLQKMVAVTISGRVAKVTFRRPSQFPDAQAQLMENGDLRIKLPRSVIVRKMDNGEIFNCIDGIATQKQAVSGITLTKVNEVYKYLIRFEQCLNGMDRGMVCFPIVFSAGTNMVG

Sequence of Drosophila Plk4 cryptic polo box (DmPlk4 CPB), aa 383-601 (Drosophila) (O97143 383-601): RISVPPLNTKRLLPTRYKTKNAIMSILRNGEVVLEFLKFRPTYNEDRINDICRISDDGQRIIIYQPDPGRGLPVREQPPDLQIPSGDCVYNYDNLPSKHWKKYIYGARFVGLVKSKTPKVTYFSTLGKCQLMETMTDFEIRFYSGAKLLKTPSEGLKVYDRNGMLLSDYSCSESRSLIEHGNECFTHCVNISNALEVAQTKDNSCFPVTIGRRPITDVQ

| Kd [1] [nM] | Kd [2] [nM] | Substance |
| --- | --- | --- |
| 720 | – | MmAsl acidic region (MmAsl AR), MST ligand (from UniProt A2AUM9 1-1736) (domain or fragment) |
| 530 | 5170 | MmSPD-2 acidic region (MmSPD-2 AR), MST ligand (from UniProt E9Q4Y4 1-2514) (domain or fragment) |
